Series [1] concerns the molecule itself. The experiment in a line: cross-linking; disulfide cross-linking of purified cysteine variants in detergent: 1 mM Cu(II)-(1,10-phenanthroline)3, 1 hour, 4 °C, 100 mM NaCl, 20 mM Tris pH 7.5, 0.05% DDM, 0.05% C12E8.
Series [2] concerns the molecule itself. The series is described as follows: crystal structure; NaS526C, NaT525C and NaE523Q with bound ATP; condition of NaA527C without MgCl2; samples with 1 mM ATP and 5 mM EDTA.
Series [3] concerns the molecule itself. The series is described as follows: crystal structure; wildtype NaAtm1 purified in DDM with MgAMPPNP; 50 mM ADA pH 7.1, 8-10% PEG 1000, 8-10% PEG 1500, 20 °C.

B1: NaA527C, single-site cysteine variant of NaAtm1 (natural protein, Novosphingobium aromaticivorans)
chain: MPPETATNPKDARHDGWQTLKRFLPYLWPADNAVLRRRVVGAILMVLLGKATTLALPFAYKKAVDAMTLGGGAQPALTVALAFVLAYALGRFSGVLFDNLRNIVFERVGQDATRHLAENVFARLHKLSLRFHLARRTGEVTKVIERGTKSIDTMLYFLLFNIAPTVIELTAVIVIFWLNFGLGLVTATILAVIAYVWTTRTITEWRTHLREKMNRLDGQALARAVDSLLNYETVKYFGAESREEARYASAARAYADAAVKSENSLGLLNIAQALIVNLLMAGAMAWTVYGWSQGKLTVGDLVFVNTYLTQLFRPLDMLGMVYRTIRQGLIDMAEMFRLIDTHIEVADVPNAPALVVNRPSVTFDNVVFGYDRDREILHGLSFEVAAGSRVAIVGPSGAGKSTIARLLFRFYDPWEGRILIDGQDIAHVTQTSLRAALGIVPQDSVLFNDTIGYNIAYGRDGASRAEVDAAAKGAAIADFIARLPQGYDTEVGERGLKLSGGEKQRVAIARTLVKNPPILLFDEATSCLDTRTEQDILSTMRAVASHRTTISIAHRLSTIADSDTILVLDQGRLAEQGSHLDLLRRDGLYAEMWARQAAESAEVSEAAE
modifications: C527 in a disulfide with C527 of the second chain after oxidation
notes: NaAtm1 of Novosphingobium aromaticivorans, GenBank ABD27067, with A527C; Made by site-directed mutagenesis of the C-terminally His6-tagged NaAtm1 construct; also called crosslinked NaA527C; source: Escherichia coli BL21-gold (DE3), purified (NiNTA, oxidation with Cu(II)-(1,10-phenanthroline)3, SEC)
B1: the binding result in series [1] is given as “binds”.

B2: NaE523Q, ATP-hydrolysis deficient variant of NaAtm1 with the E to Q mutation in the Walker B-motif (natural protein, Novosphingobium aromaticivorans)
chain: MPPETATNPKDARHDGWQTLKRFLPYLWPADNAVLRRRVVGAILMVLLGKATTLALPFAYKKAVDAMTLGGGAQPALTVALAFVLAYALGRFSGVLFDNLRNIVFERVGQDATRHLAENVFARLHKLSLRFHLARRTGEVTKVIERGTKSIDTMLYFLLFNIAPTVIELTAVIVIFWLNFGLGLVTATILAVIAYVWTTRTITEWRTHLREKMNRLDGQALARAVDSLLNYETVKYFGAESREEARYASAARAYADAAVKSENSLGLLNIAQALIVNLLMAGAMAWTVYGWSQGKLTVGDLVFVNTYLTQLFRPLDMLGMVYRTIRQGLIDMAEMFRLIDTHIEVADVPNAPALVVNRPSVTFDNVVFGYDRDREILHGLSFEVAAGSRVAIVGPSGAGKSTIARLLFRFYDPWEGRILIDGQDIAHVTQTSLRAALGIVPQDSVLFNDTIGYNIAYGRDGASRAEVDAAAKGAAIADFIARLPQGYDTEVGERGLKLSGGEKQRVAIARTLVKNPPILLFDQATSALDTRTEQDILSTMRAVASHRTTISIAHRLSTIADSDTILVLDQGRLAEQGSHLDLLRRDGLYAEMWARQAAESAEVSEAAE
notes: NaAtm1 of Novosphingobium aromaticivorans, GenBank ABD27067, with E523Q; Made by site-directed mutagenesis of the C-terminally His6-tagged NaAtm1 construct; source: Escherichia coli BL21-gold (DE3), purified (NiNTA, SEC)
Consider B2, for which the binding result in series [2] was “binds”.

B3: NaT525C, single-site cysteine variant of NaAtm1 (natural protein, Novosphingobium aromaticivorans)
chain: MPPETATNPKDARHDGWQTLKRFLPYLWPADNAVLRRRVVGAILMVLLGKATTLALPFAYKKAVDAMTLGGGAQPALTVALAFVLAYALGRFSGVLFDNLRNIVFERVGQDATRHLAENVFARLHKLSLRFHLARRTGEVTKVIERGTKSIDTMLYFLLFNIAPTVIELTAVIVIFWLNFGLGLVTATILAVIAYVWTTRTITEWRTHLREKMNRLDGQALARAVDSLLNYETVKYFGAESREEARYASAARAYADAAVKSENSLGLLNIAQALIVNLLMAGAMAWTVYGWSQGKLTVGDLVFVNTYLTQLFRPLDMLGMVYRTIRQGLIDMAEMFRLIDTHIEVADVPNAPALVVNRPSVTFDNVVFGYDRDREILHGLSFEVAAGSRVAIVGPSGAGKSTIARLLFRFYDPWEGRILIDGQDIAHVTQTSLRAALGIVPQDSVLFNDTIGYNIAYGRDGASRAEVDAAAKGAAIADFIARLPQGYDTEVGERGLKLSGGEKQRVAIARTLVKNPPILLFDEACSALDTRTEQDILSTMRAVASHRTTISIAHRLSTIADSDTILVLDQGRLAEQGSHLDLLRRDGLYAEMWARQAAESAEVSEAAE
notes: NaAtm1 of Novosphingobium aromaticivorans, GenBank ABD27067, with T525C; In the cross-linking test C525 forms a disulfide with C525 of the second chain; source: Escherichia coli BL21-gold (DE3), purified (NiNTA, oxidation with Cu(II)-(1,10-phenanthroline)3, SEC)
For the protein B3, the binding result in series [1] is “binds”.

B4: NaS526C, single-site cysteine variant of NaAtm1 (natural protein, Novosphingobium aromaticivorans)
chain: MPPETATNPKDARHDGWQTLKRFLPYLWPADNAVLRRRVVGAILMVLLGKATTLALPFAYKKAVDAMTLGGGAQPALTVALAFVLAYALGRFSGVLFDNLRNIVFERVGQDATRHLAENVFARLHKLSLRFHLARRTGEVTKVIERGTKSIDTMLYFLLFNIAPTVIELTAVIVIFWLNFGLGLVTATILAVIAYVWTTRTITEWRTHLREKMNRLDGQALARAVDSLLNYETVKYFGAESREEARYASAARAYADAAVKSENSLGLLNIAQALIVNLLMAGAMAWTVYGWSQGKLTVGDLVFVNTYLTQLFRPLDMLGMVYRTIRQGLIDMAEMFRLIDTHIEVADVPNAPALVVNRPSVTFDNVVFGYDRDREILHGLSFEVAAGSRVAIVGPSGAGKSTIARLLFRFYDPWEGRILIDGQDIAHVTQTSLRAALGIVPQDSVLFNDTIGYNIAYGRDGASRAEVDAAAKGAAIADFIARLPQGYDTEVGERGLKLSGGEKQRVAIARTLVKNPPILLFDEATCALDTRTEQDILSTMRAVASHRTTISIAHRLSTIADSDTILVLDQGRLAEQGSHLDLLRRDGLYAEMWARQAAESAEVSEAAE
modifications: C526 in a disulfide with C526 of the second chain after oxidation
notes: NaAtm1 of Novosphingobium aromaticivorans, GenBank ABD27067, with S526C; Made by site-directed mutagenesis of the C-terminally His6-tagged NaAtm1 construct; source: Escherichia coli BL21-gold (DE3), purified (NiNTA, oxidation with Cu(II)-(1,10-phenanthroline)3, SEC)
Turning to B4, the binding result in series [1] is recorded as “binds”.

B5: wildtype NaAtm1, bacterial Atm1 homolog from Novosphingobium aromaticivorans (natural protein)
chain: MPPETATNPKDARHDGWQTLKRFLPYLWPADNAVLRRRVVGAILMVLLGKATTLALPFAYKKAVDAMTLGGGAQPALTVALAFVLAYALGRFSGVLFDNLRNIVFERVGQDATRHLAENVFARLHKLSLRFHLARRTGEVTKVIERGTKSIDTMLYFLLFNIAPTVIELTAVIVIFWLNFGLGLVTATILAVIAYVWTTRTITEWRTHLREKMNRLDGQALARAVDSLLNYETVKYFGAESREEARYASAARAYADAAVKSENSLGLLNIAQALIVNLLMAGAMAWTVYGWSQGKLTVGDLVFVNTYLTQLFRPLDMLGMVYRTIRQGLIDMAEMFRLIDTHIEVADVPNAPALVVNRPSVTFDNVVFGYDRDREILHGLSFEVAAGSRVAIVGPSGAGKSTIARLLFRFYDPWEGRILIDGQDIAHVTQTSLRAALGIVPQDSVLFNDTIGYNIAYGRDGASRAEVDAAAKGAAIADFIARLPQGYDTEVGERGLKLSGGEKQRVAIARTLVKNPPILLFDEATSALDTRTEQDILSTMRAVASHRTTISIAHRLSTIADSDTILVLDQGRLAEQGSHLDLLRRDGLYAEMWARQAAESAEVSEAAE
notes: NaAtm1, ABC exporter (Atm1 homolog) of Novosphingobium aromaticivorans, GenBank ABD27067; natively cysteine-less; homodimer of 133 kDa; Selenomethionine protein (E. coli B834 (DE3)) was used for phasing; also called native transporter; source: Escherichia coli BL21-gold (DE3), purified (NiNTA, SEC) in DDM
For the protein B5, in series [3], the binding result is on record as “binds”.
